# According to article PMC10483038:
# Target: MBP-Vpu full length (HIV-1 Vpu fused to maltose binding protein) (HIV-1) (UniProt P05919)
# Test: cryo-EM structure; single-particle cryoEM of MBP-FL Vpu at 10 µM in 25 mM Tris pH 7.4, 150 mM NaCl, 100 µM TCEP; two maps at ~25 Å; protomers counted by docking MBP into the densities
substance,measurement,value
MBP-Vpu full length (HIV-1 Vpu fused to maltose binding protein) (from UniProt P05919 1-82) (natural protein),stoichiometry N,6 to 7
